The results in this text go back to US20260265404A1 (published 2026).

Experiment [1] concerns the target T1, human full-length CD33 (CD33^FL) (UniProt P20138 18-364). Briefly: SPR (Carterra); 1 µg/mL.
Experiment [2] deals with T1, human full-length CD33 (CD33^FL). Briefly: SPR (Carterra); 4 µg/mL.
For experiment [3] the target is unchanged. Put plainly: SPR (Biacore T100). (In SPR one partner is held on a chip, and binding of the other changes the refractive index at the surface.)
Experiment [4] shares this target. Briefly: SPR (Carterra); hybridoma supernatant.

In general, Kd refers to a measure of binding affinity in units of concentration. Low values mean a tighter complex, high ones a looser complex.

T1 sequence (P20138 18-364): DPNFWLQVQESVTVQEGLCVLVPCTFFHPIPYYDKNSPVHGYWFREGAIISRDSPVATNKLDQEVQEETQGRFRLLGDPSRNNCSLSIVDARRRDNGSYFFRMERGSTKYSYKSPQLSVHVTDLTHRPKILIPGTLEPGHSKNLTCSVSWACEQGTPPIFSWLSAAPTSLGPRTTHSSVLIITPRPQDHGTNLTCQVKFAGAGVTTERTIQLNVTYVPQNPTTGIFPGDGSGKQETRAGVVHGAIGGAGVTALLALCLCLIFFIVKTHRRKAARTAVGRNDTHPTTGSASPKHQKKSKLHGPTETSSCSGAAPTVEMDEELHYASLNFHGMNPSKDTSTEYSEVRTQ

B1: 2D3 antibody (human CD33V-set antibody clone, hybridoma-derived) (antibody, V domains shown)
VH: EVQLLESGGGLVQPGGSLSLSCAASGFTFSIYAMSWVRQAPGKGLEWVSAISDSGGTTYYADSVKGRFTISRDNSKNMLYLEMNSLRAEDTAIYYCAKRTRYFNGMDVWGQGTTVTVSS
VL: EIVMTQSPATLSLSPGERATLSCRASQSGSSSFLSWYQQKPGQAPRLLIYGASTRATGIPARFSGSGSGTDFTLTISSLQPEDFAVYYCQQDYNLPFTFGPGTKVDIK
Turning to B1, the Kd in experiment [1] was determined as 18 nM; in experiment [2], 27 nM; in experiment [3] it was 4.89 nM.

B2: 1A9 antibody (human CD33^PAN antibody clone, hybridoma-derived) (antibody, V domains shown)
VH: EVQLVESGGGLVQPGGSLRLSCAASGFTFSIYDMHWVRQATGKGLEWVSAIGTAGDTYYAGSVKGRFTISRENAKNSLYLQMNSLRAGDTAVYYCAREYSGYYFDYWGQGTLVTVSS
VL: AIQMTQSPSSLSASVGDRVTITCRASQDIRNDLGWYQQKPGKAPKILIYGASSLQSGVPSRFSGSGSGTDFTFTISSLQPEDFATYYCLQEYNYPCTFGQGTKLEIK
As to B2, the Kd was 67 nM in experiment [4], 36 nM in experiment [1] and 130 nM in experiment [2].

B3: 1H10 antibody (human CD33^PAN antibody clone, hybridoma-derived) (antibody, V domains shown)
VH: QVQLVQSGAEVKKPGASVKVSCKGSGYIFTSYDMHWVRQAPGQGLEWMGIIDPSGGSTSYAQKFQGRVTMTRDTSMSTVYMELSSLRSEDTAVYYCTRDYSWSYFDYWGQGTLVTVSS
VL: AIQMTQSPSSLSASVGDRVTITCRASQGIRIYLGWYQQKPGKAPKLLIYATSSLQSGVPSRFSGSGSGTDFTLTISSLQPEDFATYYCLQDYNYPWTFGQGTKVEIK
In the case of B3, the dissociation constant Kd was 112 nM in experiment [4], 13 nM in experiment [1], 42 nM in experiment [2] and 3.71 nM in experiment [3].

B4: 1E6 antibody (human CD33^PAN antibody clone, hybridoma-derived) (antibody, V domains shown)
VH: QVQLVESGGGVVQPGRSLRLSCAASGFTFSSYDIHWVRQAPGKGLEWVAVIWYDGSHNYYSDSVKGRFTISRDNSKNTLYLQMNSLRAEDTAVYYCARDYSGSYYDYWGQGTLVTVSS
VL: AIQMTQSPSSLSASVGDRVTITCRASQGIRNDLGWYQQKPGKAPKLLIYAASNLQSGVPSRFSGSGSGTDFTLTISSLQPEDFATYYCLQDYSYPRTFGQGTKVEIK
Turning to B4, the Kd in experiment [4] came out at 69 nM; in experiment [1], 67 nM; in experiment [2] it was 78 nM.

B5: 1B9 antibody (human CD33^PAN antibody clone, hybridoma-derived) (antibody, V domains shown)
VH: QVQLVESGGGVVQPGRSLRLSCAASGFIFSSYDIHWVRQAPGKGLEWVAVIWYDGSHNYYSDSVKGRFTISRDNSKNTLYLQMNSLRAEDTAVYYCARDYSGSYFDYWGQGTLVTVSS
VL: AIQMTQSPSSLSASVGDRVTITCRASQDIRNDLGWYLQRPGKAPKLLIYAASSLQSGVPSRFSGSGSGTDFTLTISSLQPEDFATYYCLQDYSYPRTFGQGTTVEIK
Take B5: the Kd in experiment [4] worked out at 77 nM.

B6: 1D2 antibody (human CD33^PAN antibody clone, hybridoma-derived) (antibody, V domains shown)
VH: QVQLVESGGGVVQPGRSLRLSCAASGFTFSSYDIHWVRQAPGKGLEWVAVIWYDGSQKYYADSVKGRFTISRDNSKNTLYLQMNSLRAEDTAVYYCARDYSGSYYDYWGQGTLVTVSS
VL: AIQMTQSPSSLSASVGDRVTITCRASQGIRNDLGWYQQKPGKAPELLIYATSSLQSGVPSRFSGSGSGTDFTLIISSLQPEDFATYYCLQDYSYPRTFGQGTKVEIK
Consider B6, for which, in experiment [4], binding was characterised by a dissociation constant (Kd) of 116 nM.

B7: 1H8 antibody (human CD33V-set antibody clone, hybridoma-derived) (antibody, V domains shown)
VH: QVQLVESGGGVVQPGGSLRLSCAASGFTFGSYGMHWVRQAPGKGLEWVAVIWYDGSNEYYADSVKGRFTVSRDNSKHTLYLQMNRLRAEDTAVYYCARDLDYDSSGGDYWGQGILVLVSS
VL: EIVLTQSPDFQSVTPKEKVTITCRASQNIGGNLHWYQQKPDQSPKLLIRYATQPFSGVPSRFGGSGSGTDFTLTINSLEAEDAATYYCHQSSSLPLTFGGGTKVEIK
For B7, the figures for the Kd in experiment [1] and in experiment [2] were 24 nM and 40 nM, respectively.
